Measured values from patent publication EP1441764B1.

Target: C-RANKL protein (mouse RANKL fragment with N-terminal cysteine-containing linker GPGCGGG and hexahistidine tag) (mouse) (UniProt O35235)
Assay: ELISA on plates coated with C-RANKL 10 ug/ml, serial dilutions of RANK-Fc, anti-Fc-HRP detection

Sequence of UniProt O35235 (O35235 other isoform, or with tags, fused parts or gaps limits assumed, form in doubt): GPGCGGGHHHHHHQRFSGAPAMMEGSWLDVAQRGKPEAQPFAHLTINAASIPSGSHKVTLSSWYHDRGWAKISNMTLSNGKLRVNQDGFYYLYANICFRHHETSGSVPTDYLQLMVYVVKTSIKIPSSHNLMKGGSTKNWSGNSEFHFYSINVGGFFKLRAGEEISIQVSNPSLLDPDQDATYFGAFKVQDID

Question: How did the EC50 turn out when purified RANK-Fc fusion protein was run?
Answer: 1 to 3 nM
